# Article PMC2614274
# T1: DNA polymerase III alpha subunit (PolIIIα), exonuclease-deficient (Thermus aquaticus, UniProt Q9XDH5 1-1220, D20N;D212N)
# T1 sequence: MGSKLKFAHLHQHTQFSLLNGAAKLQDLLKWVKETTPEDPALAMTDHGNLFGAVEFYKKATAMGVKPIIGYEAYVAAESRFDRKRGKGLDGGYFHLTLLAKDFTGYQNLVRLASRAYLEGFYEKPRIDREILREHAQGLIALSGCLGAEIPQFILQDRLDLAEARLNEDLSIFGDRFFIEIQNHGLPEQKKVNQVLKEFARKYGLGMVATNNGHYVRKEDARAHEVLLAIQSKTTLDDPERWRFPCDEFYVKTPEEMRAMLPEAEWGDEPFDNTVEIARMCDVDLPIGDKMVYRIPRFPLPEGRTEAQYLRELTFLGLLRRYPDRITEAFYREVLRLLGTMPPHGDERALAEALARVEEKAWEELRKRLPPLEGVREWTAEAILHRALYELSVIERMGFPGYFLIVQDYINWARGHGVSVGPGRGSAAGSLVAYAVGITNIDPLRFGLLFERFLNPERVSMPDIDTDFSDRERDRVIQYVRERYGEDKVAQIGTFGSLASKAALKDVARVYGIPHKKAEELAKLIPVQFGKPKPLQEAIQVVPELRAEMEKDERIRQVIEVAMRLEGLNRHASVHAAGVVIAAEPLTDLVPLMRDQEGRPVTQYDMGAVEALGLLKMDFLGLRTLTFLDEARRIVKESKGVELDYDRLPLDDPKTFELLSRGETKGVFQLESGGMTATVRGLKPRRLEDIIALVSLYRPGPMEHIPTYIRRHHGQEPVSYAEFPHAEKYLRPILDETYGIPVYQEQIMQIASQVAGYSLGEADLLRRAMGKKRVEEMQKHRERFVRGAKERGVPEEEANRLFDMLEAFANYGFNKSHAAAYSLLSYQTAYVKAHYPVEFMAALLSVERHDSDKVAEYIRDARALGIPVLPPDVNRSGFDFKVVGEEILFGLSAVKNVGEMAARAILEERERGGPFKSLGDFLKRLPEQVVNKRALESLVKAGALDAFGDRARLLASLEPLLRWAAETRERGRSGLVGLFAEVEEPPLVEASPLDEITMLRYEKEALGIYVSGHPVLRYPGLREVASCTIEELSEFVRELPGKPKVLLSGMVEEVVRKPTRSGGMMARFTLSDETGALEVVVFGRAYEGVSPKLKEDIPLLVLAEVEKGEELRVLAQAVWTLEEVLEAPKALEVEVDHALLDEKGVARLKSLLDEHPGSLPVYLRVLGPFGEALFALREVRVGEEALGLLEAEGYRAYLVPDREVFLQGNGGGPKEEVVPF
# B1: primer-template DNA, ddC-terminated primer (dsDNA)
# DNA 1: CGAAACGACGGCCAGTGCCAC
# DNA 2: TTTTTTGTGGCACTGGCCGTCGTTTCG
# modifications: 2',3'-dideoxycytidine at primer 3' end (incorporated in situ by the polymerase)
# Molecular target: T1, DNA polymerase III alpha subunit …
# Experiment: X-ray crystallography
binder,measurement,value
B1,binding result,binds
